Experiments:
Format in all cases: biochemical
[1] = target: T1, insulin receptor kinase (IRK) (Homo sapiens, UniProt P06213); test: BVR phosphorylation by the insulin receptor tyrosine kinase (IRK); conditions: for reduction of extent of BVR phosphorylation by IRK compared with wtBVR: tyrosine point mutant as IRK substrate, 2 h at 30° C.; for BVR phosphorylation by IRK (mutant as substrate): tyrosine point or double mutant as IRK substrate
T1 construct: GST-hBVR fusion protein and the 48 kDa cytoplasmic domain of the β-subunit of IRK; purchased Biomol International (Plymouth, Pa.)
T1 sequence (P06213 980-1382 limits assumed): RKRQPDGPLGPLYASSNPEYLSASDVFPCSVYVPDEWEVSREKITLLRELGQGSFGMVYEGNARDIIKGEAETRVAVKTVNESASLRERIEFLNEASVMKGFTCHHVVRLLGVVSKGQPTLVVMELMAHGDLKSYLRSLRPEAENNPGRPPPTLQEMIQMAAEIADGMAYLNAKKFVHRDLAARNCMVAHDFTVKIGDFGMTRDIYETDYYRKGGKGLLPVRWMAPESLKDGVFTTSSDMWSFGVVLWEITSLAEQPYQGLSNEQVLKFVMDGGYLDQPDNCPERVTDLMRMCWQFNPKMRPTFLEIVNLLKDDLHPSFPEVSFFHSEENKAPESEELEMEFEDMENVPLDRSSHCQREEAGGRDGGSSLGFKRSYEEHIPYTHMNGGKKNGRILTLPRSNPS
Procedure: FIGS. 7A-B illustrate BVR as a substrate for insulin receptor kinase. […] 10 μg purified wtBVR was incubated in 100 μl kinase assay buffer (pH 8.0) containing 0.1 μg IRK, 10 μM ATP, and 20 μCi [^32P]-ATP at 25° C. up to 4 h. The reaction was terminated by the addition of Laemmli buffer at different points of time as indicated. Samples were separated using 8% SDS-PAGE gel and transferred onto PVDF filter, and phosphorylated protein bands were visualized by autoradiography. […] From left to right lane 1, wtBVR plus IRK in the presence of 50 mM EDTA (pH 8.0); lane 2, wtBVR plus IRK; lane 3, wtBVR in the absence of IRK. The reaction mixtures were subjected to SDS-PAGE electrophoresis and transferred onto a polyvinylidene fluoride (“PVDF”) filter. The blot was immuno-stained with anti-phosphotyrosine antibodies and ECL detection system was used to visualize phosphorylated tyrosines. […] In FIG. 8A the Y^198 residue of BVR is phosphorylated by IRK. Purified wtBVR and Y^198 mutant BVR were incubated with IRK at 30° C. for 2 h. Samples were subjected to SDS-PAGE electrophoresis and processed as described in FIG. 8B. FIG. 8B is a time course of Y^198 mutant BVR phosphorylation by IRK. A purified preparation of human BVR that carried Y^198 mutation was incubated with IRK for up to 3 h as described in FIG. 7A. Samples taken at the indicated time-points were analyzed for detection of phosphorylated proteins as above. […] Subsequently, samples were subjected to SDS-PAGE, stained with Coomassie blue and visualized bands were excised and used for measurement of radioactive content. The experiments were repeated three times. […] The indicated double mutants of BVR were used as substrates for IRK and analysis was carried out as in FIG. 8A. FIGS. 10A-B illustrate that autophosphorylation of BVR is an Mn^+2 dependant kinase reaction. […] The effects of different metal ions (30 mM MnCl2, 20 mM MgCl2, 20 mM CaCl2, 20 mM Zn acetate) and their combinations were analyzed as indicated in the text. […] The reactions were carried out in HEPES buffer (pH 8.0) in the presence of 20 mM MgCl2 as described in the Examples. Phosphorylation of BVR by IRK was examined using GST-hBVR fusion protein and the 48 kDa cytoplasmic domain of the β-subunit of IRK. BVR (5 μg) was incubated in 50 μl of IRK kinase buffer containing 50 mM HEPES (pH 8.0), 20 mM MgCl2, 1 mM DTT in the presence of 0.05 μg IRK and 10 μM ATP labeled with 10 μCi [γ-^32P]-ATP. The reaction was started with the addition of labeled ATP and incubated for 2-4 h. Reactions were terminated by addition of Laemmli sample buffer and boiled for 3 min. Samples were subjected to 8% SDS-PAGE and transferred to PVDF membranes for autoradiography.

[2] = target: T2, BVR (Homo sapiens, UniProt P53004, A154S/E160D/G155D); test: Phosphorylation of IRS-1 peptides by BVR; conditions: peptide as substrate for BVR kinase
T2 construct: made in house; host or cells: E. coli (pGEX 4T-2/hBVR)
T2 sequence (P53004 3-296 A154S/G155D/E160D): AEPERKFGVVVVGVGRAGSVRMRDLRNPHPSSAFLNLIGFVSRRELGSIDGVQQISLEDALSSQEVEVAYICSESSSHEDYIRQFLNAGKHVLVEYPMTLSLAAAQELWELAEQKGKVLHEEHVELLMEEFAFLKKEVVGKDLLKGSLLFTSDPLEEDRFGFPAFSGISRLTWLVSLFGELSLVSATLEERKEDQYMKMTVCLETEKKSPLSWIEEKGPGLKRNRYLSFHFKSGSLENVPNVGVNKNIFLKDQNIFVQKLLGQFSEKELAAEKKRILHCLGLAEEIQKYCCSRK
Procedure: (§1) To detect autophosphorylation of BVR, GST-hBVR of wild type (wt) and mutant variants were incubated in 50 mM HEPES buffer (pH 8.4) in the presence of 30 mM MnCl2 and 1 mM DTT for 2 h at 30° C. The reaction was started with the addition of 10 μM ATP labeled with 10 μCi [γ-^32P]-ATP and was stopped with the addition of Laemmli sample buffer. Samples were boiled for 3 min and applied to a 8% SDS-PAGE gels, transferred to a PVDF membrane, and then visualized by autoradiography. To measure kinase activity, GST-BVR (5 μg) was incubated in 5 μl kinase buffer containing 50 mM HEPES buffer (pH 8.4), 20 mM MgCl2, 30 mM MnCl2, 1 mM DTT and 10 μM ATP labeled with 10 μCi [γ-^32P]-ATP in the presence of 5 μg substrates: IRS-1 or Raytide or poly glu/tyr (4:1) for 2 h at 30° C. The reaction was started with the addition of ATP and terminated by adding 120 μl 10% H3PO4. 100 μl aliquots were directly transferred to P81 Whatman filters which were subsequently washed extensively in 0.75% phosphoric acid at room temperature. Finally, the filters were submerged in acetone for 5 min, dried, and retained counts were measured using a Beckman LS 6500 liquid scintillation counter (Beckman Coulter, Fullerton, Calif.).
The following experiments were conducted to determine whether IRS is a substrate for serine kinase activity of BVR or its tyrosine kinase activity. […]

[3] = test system: human BVR; test: BVR autophosphorylation; conditions: pH 8.4, 30 mM MnCl2, 2 h at 30° C.
Procedure: In FIG. 9A, effect of tyrosine mutations of BVR on its autophosphorylation is shown. Human wtBVR and BVR with mutations in tyrosine were used in the experiment to determine autophosphorylation of BVR. The reactions were performed as described in the Examples. FIG. 9B is a graph showing that BVR tyrosine kinase activity was checked by incubating 5 μg purified BVR with 5 μg Raytide in 50 μl kinase buffer containing 10 μM labeled ATP for 2 h at 30° C. The aliquots of the reaction were transferred onto P81 Whatman filters and radioactivity due to phosphorylation was measured using a scintillation counter.
FIGS. 10A-B illustrate that autophosphorylation of BVR is an Mn^+2 dependant kinase reaction. […] The effects of different metal ions (30 mM MnCl2, 20 mM MgCl2, 20 mM CaCl2, 20 mM Zn acetate) and their combinations were analyzed as indicated in the text. […] Phosphorylation of wtBVR by IRK in the presence of tyrosine kinase inhibitor genestein (200 μM); DMSO was used as the vehicle for genestein and was included in the control reaction mixture. The reactions were carried out in HEPES buffer (pH 8.0) in the presence of 20 mM MgCl2 as described in the Examples.
as §1, with “To measure kinase activity, GST-BVR (5 μg) was incubated in 5 μl kinase buffer containing 50 mM HEPES buffer (pH 8.4), 20 mM MgCl2, 30 mM MnCl2, 1 mM DTT and 10 μM ATP labeled with 10 μCi [γ-^32P]-ATP in the presence of 5 μg substrates: IRS-1 or Raytide or poly glu/tyr (4:1) for 2 h at 30° C.” left out

Molecule: O=C(O)CN(CCN(CC(=O)O)CC(=O)O)CC(=O)O [EDTA, reference compound]
- phosphorylation of BVR by IRK in presence of EDTA ([1]; 50 mM EDTA (pH 8.0), 30° C., 2 h): abolished phosphorylation of BVR by IRK

Molecule: O=c1c(-c2ccc(O)cc2)coc2cc(O)cc(O)c12 [Genestein, reference compound]
- BVR phosphorylation mediated by IRK in presence of PTK inhibitor ([1]; genestein 200 μM, HEPES pH 8.0, 20 mM MgCl2): significantly inhibited BVR phosphorylation mediated by IRK

Molecule: Arg-Thr-Glu-Ser^307-Ile-Thr-Ala-Thr-Ser^312-Pro-Ala-Ser^315-Met-Val-Gly-Gly-Lys-Pro (RTESITATSPASMVGGKP; Biliverdin reductase peptide) [second IRS-1 peptide (#2), IRS-1 peptide containing S^307, S^312, and S^315]
- phosphorylation of IRS-1 peptide by BVR [2]: 1198±230 cpm

Molecule: Lys-Lys-His-Ala-Asp-Asp-Gly-Ala-Met-Pro-Met-Ser^312-Pro-Gly-Val-Ala (KKHADDGAMPMSPGVA; Biliverdin reductase peptide) [mutant IRS-1 peptide (#1), mutant IRS-1 peptide without tyrosine, only S^616 maintained]
- phosphorylation of IRS-1 peptide by BVR [2]: 1049±78 cpm

B1: Y^228: human BVR point mutant NRYLS to NRFLS (protein, UniProt P53004 3-296, looked up, variant Y228F)
Biliverdin reductase A: AEPERKFGVVVVGVGRAGSVRMRDLRNPHPSSAFLNLIGFVSRRELGSIDGVQQISLEDALSSQEVEVAYICSESSSHEDYIRQFLNAGKHVLVEYPMTLSLAAAQELWELAEQKGKVLHEEHVELLMEEFAFLKKEVVGKDLLKGSLLFTAGPLEEERFGFPAFSGISRLTWLVSLFGELSLVSATLEERKEDQYMKMTVCLETEKKSPLSWIEEKGPGLKRNRFLSFHFKSGSLENVPNVGVNKNIFLKDQNIFVQKLLGQFSEKELAAEKKRILHCLGLAEEIQKYCCSRK
- autophosphorylation of BVR (mutants) [3]: did not result in significant changes in autophosphorylation of BVR
- reduction of extent of BVR phosphorylation by IRK compared with wtBVR [1]: 40%

B2: Y^291: human BVR point mutant QKYCC to QKFCC (protein, UniProt P53004 3-296, looked up, variant Y291F)
Biliverdin reductase A: AEPERKFGVVVVGVGRAGSVRMRDLRNPHPSSAFLNLIGFVSRRELGSIDGVQQISLEDALSSQEVEVAYICSESSSHEDYIRQFLNAGKHVLVEYPMTLSLAAAQELWELAEQKGKVLHEEHVELLMEEFAFLKKEVVGKDLLKGSLLFTAGPLEEERFGFPAFSGISRLTWLVSLFGELSLVSATLEERKEDQYMKMTVCLETEKKSPLSWIEEKGPGLKRNRYLSFHFKSGSLENVPNVGVNKNIFLKDQNIFVQKLLGQFSEKELAAEKKRILHCLGLAEEIQKFCCSRK
- autophosphorylation of BVR (mutants) [3]: did not result in significant changes in autophosphorylation of BVR
- reduction of extent of BVR phosphorylation by IRK compared with wtBVR [1]: 49%

B3: Y^198 plus Y^228: human BVR double mutant DQFMK and NRFLS (protein, UniProt P53004 3-296, looked up, variant Y198F Y228F)
Biliverdin reductase A: AEPERKFGVVVVGVGRAGSVRMRDLRNPHPSSAFLNLIGFVSRRELGSIDGVQQISLEDALSSQEVEVAYICSESSSHEDYIRQFLNAGKHVLVEYPMTLSLAAAQELWELAEQKGKVLHEEHVELLMEEFAFLKKEVVGKDLLKGSLLFTAGPLEEERFGFPAFSGISRLTWLVSLFGELSLVSATLEERKEDQFMKMTVCLETEKKSPLSWIEEKGPGLKRNRFLSFHFKSGSLENVPNVGVNKNIFLKDQNIFVQKLLGQFSEKELAAEKKRILHCLGLAEEIQKYCCSRK
- BVR phosphorylation by IRK (mutant as substrate) [1]: little or no phosphorylation was detected

B4: Y^198 plus Y^291: human BVR double mutant DQFMK and QKFCC (protein, UniProt P53004 3-296, looked up, variant Y198F Y291F)
Biliverdin reductase A: AEPERKFGVVVVGVGRAGSVRMRDLRNPHPSSAFLNLIGFVSRRELGSIDGVQQISLEDALSSQEVEVAYICSESSSHEDYIRQFLNAGKHVLVEYPMTLSLAAAQELWELAEQKGKVLHEEHVELLMEEFAFLKKEVVGKDLLKGSLLFTAGPLEEERFGFPAFSGISRLTWLVSLFGELSLVSATLEERKEDQFMKMTVCLETEKKSPLSWIEEKGPGLKRNRYLSFHFKSGSLENVPNVGVNKNIFLKDQNIFVQKLLGQFSEKELAAEKKRILHCLGLAEEIQKFCCSRK
- BVR phosphorylation by IRK (mutant as substrate) [1]: little or no phosphorylation was detected

From patent US20130344053A1, “Methods of Modifying Insulin Signaling Using Biliverdin Reductase (BVR) and BVR Derived Peptides” (University of Rochester, priority 2010, published 2013)
